Here are results for 167 variants from the RNAGym collection of RNA variant scans (doi:10.7554/elife.90254).

B1: LINE1-full (parent)
chain: UACGUAGGUGGUUUUCCCCUGAUAGUGCUAAGGGGGCCUGGAAGUUUGGACUGGGCAGAGCUCAACACAGCGUGGCAAAGUGGCUGUGGCUAGACUGCCUCUCUGGAUUCCUCGUCACUCAGCAGGGCAUCUCUGAGAGAAAUGCC

Variants of B1 are the subject of this data set. Briefly: self-cleavage, relative activity (ratio to wild type); higher = more cleavage; in vitro, sequencing; the parent is a self-cleaving ribozyme.
Regarding U13C G139A, the self-cleavage was 0.92. Turning to U14A U62G, the self-cleavage was found to be 0.53. For the variant U14A U62C, the self-cleavage came to 0.1.

As for U14A U15C, the self-cleavage was found to be 1.02.

Take U13G G105A: the self-cleavage was found to be 0.74. As for U13C G72U, the figure is 1.21. In the case of U13C U134C, the self-cleavage worked out at 1.21. With U14C A43G, the self-cleavage stood at 1.14. As to U13G A141G, the self-cleavage worked out at 0.94.

Consider U13G A69G, for which the self-cleavage was found to be 0.67.

On to U14A A79G, for which the self-cleavage was 0.8. For the variant U14A A64U, the self-cleavage came to 0.48.

With U14A A64G, the self-cleavage was found to be 0.21. Then U13C U23A, with 1.09. As to U13C G70C, the self-cleavage was found to be 0.15. Regarding U14A C90U, the self-cleavage is 0.04. On to U13G U115C, for which the self-cleavage is 1.39.

With U13C G88U, the self-cleavage came to 0.09.

Regarding U14A G144A, the self-cleavage was 1.12. As for U14A G54A, the figure is 0.4; as for U13C G44A, 0.75; as for U13G U73A, 2.54.

For the variant U13C G86A, the self-cleavage was found to be 0.13. For U14A U23A, the self-cleavage turned out to be 0.72. Then U13C G125U, with 1.4.

Turning to U13C U132G, the self-cleavage was determined as 1.02.

For U13G U119A, the self-cleavage was found to be 1.8.

Regarding U13C G114U, the self-cleavage was 1.65. As for U13C G114A, the figure is 1.16; as for U13G C99U, 0.69. Regarding U13G U47A, the self-cleavage is 0.86. As for U14A A67G, the figure is 0.59; as for U13C U108C, 1.37; as for U13C U108A, 0.91.

For the variant U14A G137A, the self-cleavage stood at 0.77. For U14A U108C, the self-cleavage came to 0.87. As for U14A U108G, the figure is 1.09; as for U13G U46C, 1.33.

U13C G35U: the self-cleavage is 0.75. As for U13C G35C, the self-cleavage was found to be 1.24. Then U13G U23C, with 0.76; and U13C U143G, with 2.3. Consider U13C U143C, for which the self-cleavage came to 1.06. On to U13G C145U, for which the self-cleavage is 1.16. Then U14A A69U, with 0.06; and U14A A69G, with 2.24.

In the case of U13G A57G, the self-cleavage is 1.05.

As for U13G A57U, the self-cleavage was found to be 0.13. Consider U14A A22U, for which the self-cleavage was determined as 1.6. On to U14A C99G, for which the self-cleavage is 0.63. Then U14A U47A, with 0.81; and U13G A138G, with 1.45. As to U13C U45A, the self-cleavage was 0.76. Turning to U13C U45C, the self-cleavage is 1.16. As for U13C U96A, the figure is 0.11; as for U13C U96C, 0.17. Then U13C U109A, with 1.11; and U13C U109C, with 1. Then U14A A107G, with 1.1.

Consider U13C U46C, for which the self-cleavage came out at 1.17. Turning to U13G A142G, the self-cleavage stood at 1.41. Then U13G G34U, with 1.2. Then U13C U14C, with 1.13. Then U13C U14A, with 0.79; and U13C G36C, with 0.96.

Regarding U14A U143A, the self-cleavage is 0.99.

In the case of U13G A107U, the self-cleavage was found to be 1.58. As for U13G A107G, the figure is 1.12. With U13G U102C, the self-cleavage was 0.66. On to U13C G48U, for which the self-cleavage was determined as 0.91. Turning to U14A A65G, the self-cleavage amounted to 0.06.

For the variant U14A U52A, the self-cleavage is 1.09. As for U13G U20A, the figure is 0.69. As for U13C U47A, the figure is 1.02; as for U13C U47G, 0.81.

In the case of U13G A30U, the self-cleavage was found to be 0.56. Turning to U13G A30G, the self-cleavage is 1.27.

With U13C G93A, the self-cleavage amounted to 0.17. Regarding U13C G93U, the self-cleavage came to 0.03. In the case of U14A U87A, the self-cleavage amounted to 0.15.

U13C G127U: the self-cleavage turned out to be 1.36. As for U13C G127C, the figure is 1.47.

In the case of U13G A117C, the self-cleavage came to 0.65.

On to U13C G82A, for which the self-cleavage worked out at 0.72. Then U14A U115C, with 1.06; and U14A U115A, with 0.7. As for U14A A121C, the figure is 1.07. Then U14A A121G, with 0.94. On to U13C G58C, for which the self-cleavage stood at 0.08. Take U14A A57G: the self-cleavage stood at 0.75.

Take U14A A57U: the self-cleavage worked out at 0.03. Then U14A A57C, with 0.04. Consider U14A C111A, for which the self-cleavage came out at 0.72.

Turning to U13C U81A, the self-cleavage was 1.56.

For U13C U130G, the self-cleavage was found to be 0.95.

On to U14A A94U, for which the self-cleavage came out at 0.13. Then U13C U104A, with 1.18; and U13C U104C, with 1.28; and U14C A22G, with 0.99.

With U13C U85C, the self-cleavage came to 0.18.

On to U13C U85G, for which the self-cleavage was 0.29. Then U13G A31G, with 0.39. Take U13C U26A: the self-cleavage was 0.97. As for U13C U26C, the figure is 1.01; as for U14A A42C, 0.97. With U14A A42G, the self-cleavage is 0.98. Regarding U14A A42U, the self-cleavage came out at 0.47. As for U13C U87A, the figure is 0.1; as for U13C U87C, 0.24. Then U14A C131U, with 0.21. Take U13C U100G: the self-cleavage is 1.63. Take U13G U100C: the self-cleavage was 1.17.

As for U14A A59G, the self-cleavage turned out to be 0.14. As for U14A A138U, the figure is 1.07. Then U13G U15C, with 1.47; and U13C G83U, with 0.27; and U14A G48A, with 1.09. In the case of U14A A77C, the self-cleavage was determined as 0.88. As to U13C G55A, the self-cleavage was found to be 0.23. On to U13C G55U, for which the self-cleavage is 0.22.

Turning to U13C U112A, the self-cleavage came to 1.05.

On to U14A A124U, for which the self-cleavage is 1.67.

U14A A124G: the self-cleavage came to 0.62.

Turning to U14A U96G, the self-cleavage came to 0. As for U14C A24U, the figure is 1.07. As for U14C A24G, the figure is 0.81; as for U13C U39G, 1.54. For U13C U39A, the self-cleavage amounted to 1.33. As to U14A G34A, the self-cleavage amounted to 0.78. On to U14A G34C, for which the self-cleavage is 1.98.

On to U14A U85C, for which the self-cleavage came to 0.13. On to U13C U29C, for which the self-cleavage stood at 1.35.

For the variant U13C U29A, the self-cleavage is 0.95. On to U14A G36U, for which the self-cleavage worked out at 1.12. Turning to U13G U143A, the self-cleavage turned out to be 1.33. On to U14A A50U, for which the self-cleavage amounted to 0.18.

As to U13C G41U, the self-cleavage was 1.14. Then U14A G55U, with 0.28; and U13C U15G, with 0.75; and U13C U15A, with 0.79.

U13C G126A: the self-cleavage came to 1.22. As for U14A U119C, the figure is 0.85; as for U14A U112A, 1.33. As for U14A U112C, the figure is 0.79; as for U14C A30U, 1.11; as for U14C A30G, 1.08. Then U14A U102C, with 1.19; and U13C U119G, with 1.28.

Regarding U13C U119A, the self-cleavage stood at 1.15.

Consider U14A C63U, for which the self-cleavage was 0.09. As to U13G U96C, the self-cleavage was determined as 0.14.

In the case of U13G U134A, the self-cleavage stood at 1.06. As for U13C U52A, the figure is 1.44. U13C U52C: the self-cleavage was 1.06. With U14A C51U, the self-cleavage turned out to be 0.97. Then U13C U20A, with 1.07; and U13G A79G, with 2.7; and U14A U26C, with 1.95. Then U14A A136U, with 1.19; and U14A U134C, with 1.62. Take U13G A59G: the self-cleavage is 0.12.

Consider U13G U108C, for which the self-cleavage came out at 1.31.

U13G U108G: the self-cleavage amounted to 1.2.

In the case of U14A U100C, the self-cleavage was 0.78. As for U14A U100A, the figure is 0.28.

Regarding U13G C113A, the self-cleavage was 1.43.

Consider U14C A42U, for which the self-cleavage was 1.02.
